# From publication PMC9482650, “Quantitative fragmentomics allow affinity mapping of interactomes” (Nature Communications, 2022)
# T1: GRIP1_4, Q9Y3R0
# T1 sequence (Q9Y3R0 467-571, limits assumed, looked up): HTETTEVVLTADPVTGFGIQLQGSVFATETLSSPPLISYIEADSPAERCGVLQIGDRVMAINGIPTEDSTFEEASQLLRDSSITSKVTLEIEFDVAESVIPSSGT
# T2: LRRC7, Q96NW7
# T2 sequence (Q96NW7 1440-1537, limits assumed, looked up): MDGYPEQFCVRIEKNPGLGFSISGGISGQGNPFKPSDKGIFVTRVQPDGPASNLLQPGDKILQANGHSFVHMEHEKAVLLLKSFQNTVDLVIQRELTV
# T3: SIPA1L2, Q9P2F8
# T3 sequence (Q9P2F8 945-1036, limits assumed, looked up): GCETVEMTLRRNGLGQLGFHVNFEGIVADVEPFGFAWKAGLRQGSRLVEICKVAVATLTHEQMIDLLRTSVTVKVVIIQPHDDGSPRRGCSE
# T4: PARD3B_1, Q8TEW8
# T4 sequence (Q8TEW8 196-299, limits assumed, looked up): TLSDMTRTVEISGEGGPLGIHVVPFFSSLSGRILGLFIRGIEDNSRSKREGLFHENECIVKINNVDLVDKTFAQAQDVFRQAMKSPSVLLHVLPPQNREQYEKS
# T5: PCLO, Q9Y6V0
# T5 sequence (Q9Y6V0 4491-4600, limits assumed, looked up): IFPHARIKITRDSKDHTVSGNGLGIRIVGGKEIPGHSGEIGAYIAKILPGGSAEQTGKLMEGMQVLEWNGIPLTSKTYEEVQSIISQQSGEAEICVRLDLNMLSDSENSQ
# T6: LNX2_2, Q8N448
# T6 sequence (Q8N448 334-432, limits assumed, looked up): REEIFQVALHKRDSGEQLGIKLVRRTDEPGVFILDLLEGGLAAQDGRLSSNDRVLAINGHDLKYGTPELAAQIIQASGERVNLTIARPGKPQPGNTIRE
# T7: MPDZ_10, O75970
# T7 sequence (O75970 1624-1722, limits assumed, looked up): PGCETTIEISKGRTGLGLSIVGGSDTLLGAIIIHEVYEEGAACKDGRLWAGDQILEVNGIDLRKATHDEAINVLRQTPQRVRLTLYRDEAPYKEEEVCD
# T8: DFNB31_3, Q9P202
# T8 sequence (Q9P202 811-907, limits assumed, looked up): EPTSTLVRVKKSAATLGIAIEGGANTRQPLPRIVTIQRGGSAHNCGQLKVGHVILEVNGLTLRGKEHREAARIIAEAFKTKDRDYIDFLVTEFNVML
# T9: GRIP1_7, Q9Y3R0
# T9 sequence (Q9Y3R0 999-1096, limits assumed, looked up): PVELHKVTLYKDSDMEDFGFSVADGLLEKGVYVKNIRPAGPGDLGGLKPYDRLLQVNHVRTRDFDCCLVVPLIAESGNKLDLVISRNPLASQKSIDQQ
# T10: DLG3_1, Q92796
# T10 sequence (Q92796 125-227, limits assumed, looked up): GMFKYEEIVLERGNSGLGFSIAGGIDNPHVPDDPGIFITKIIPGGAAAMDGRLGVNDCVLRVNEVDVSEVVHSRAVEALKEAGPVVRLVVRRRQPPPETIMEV
# T11: TIAM2, Q8IVF5
# T11 sequence (Q8IVF5 885-986, limits assumed, looked up): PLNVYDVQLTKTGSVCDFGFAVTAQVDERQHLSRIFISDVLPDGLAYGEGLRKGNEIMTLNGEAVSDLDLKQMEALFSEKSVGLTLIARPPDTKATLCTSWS
# Target: NOS1, P29475
# Test: holdup assay
# Parameters: key: below the threshold = too weak to quantify, mostly under pKd 3.1 to 4
# Conditions: plain residues with an end cap or a label only (N-terminal biotin on a linker: ado-ado)
# NOS1, P29475, sequence (P29475 9-101): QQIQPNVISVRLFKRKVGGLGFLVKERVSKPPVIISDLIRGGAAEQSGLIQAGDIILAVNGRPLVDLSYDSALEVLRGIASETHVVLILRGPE
row,pKd,Binder
1,3.78,"QYPGSPDSWV [PKP4, Q99569]"

# Target: T1, GRIP1_4, Q9Y3R0
# Test: holdup assay
# Parameters: key: below the threshold = too weak to quantify, mostly under pKd 3.1 to 4
# Conditions: plain residues with an end cap or a label only (N-terminal biotin on a linker: ado-ado)
row,pKd,Binder
1,below the threshold,"QYPGSPDSWV [PKP4, Q99569]"

# Target: LAP2, Q96RT1
# Test: holdup assay
# Parameters: key: below the threshold = too weak to quantify, mostly under pKd 3.1 to 4
# Conditions: plain residues with an end cap or a label only (N-terminal biotin on a linker: ado-ado)
# LAP2, Q96RT1, sequence (Q96RT1 other isoform, or with tags, fused parts or gaps): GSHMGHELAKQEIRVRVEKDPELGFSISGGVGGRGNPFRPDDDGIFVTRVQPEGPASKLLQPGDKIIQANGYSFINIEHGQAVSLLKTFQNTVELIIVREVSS
row,pKd,Binder
1,5.5,"QYPGSPDSWV [PKP4, Q99569]"

# Target: PDLIM1, O00151
# Test: holdup assay
# Parameters: key: below the threshold = too weak to quantify, mostly under pKd 3.1 to 4
# Conditions: plain residues with an end cap or a label only (N-terminal biotin on a linker: ado-ado)
# PDLIM1, O00151, sequence (O00151 1-87): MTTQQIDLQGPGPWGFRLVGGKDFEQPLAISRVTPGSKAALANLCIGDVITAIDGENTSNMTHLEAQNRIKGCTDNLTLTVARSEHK
row,pKd,Binder
1,4.14,"QYPGSPDSWV [PKP4, Q99569]"

# Target: T2, LRRC7, Q96NW7
# Test: holdup assay
# Parameters: key: below the threshold = too weak to quantify, mostly under pKd 3.1 to 4
# Conditions: plain residues with an end cap or a label only (N-terminal biotin on a linker: ado-ado)
row,pKd,Binder
1,4.97,"QYPGSPDSWV [PKP4, Q99569]"

# Target: T3, SIPA1L2, Q9P2F8
# Test: holdup assay
# Parameters: key: below the threshold = too weak to quantify, mostly under pKd 3.1 to 4
# Conditions: plain residues with an end cap or a label only (N-terminal biotin on a linker: ado-ado)
row,pKd,Binder
1,below the threshold,"QYPGSPDSWV [PKP4, Q99569]"

# Target: GRID2IP_1, A4D2P6
# Test: holdup assay
# Parameters: key: below the threshold = too weak to quantify, mostly under pKd 3.1 to 4
# Conditions: plain residues with an end cap or a label only (N-terminal biotin on a linker: ado-ado)
# GRID2IP_1, A4D2P6, sequence (A4D2P6 1-87): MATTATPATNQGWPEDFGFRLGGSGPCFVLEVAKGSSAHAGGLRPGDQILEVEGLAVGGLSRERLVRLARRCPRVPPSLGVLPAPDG
row,pKd,Binder
1,below the threshold,"QYPGSPDSWV [PKP4, Q99569]"

# Target: MAGI2_3, Q86UL8
# Test: holdup assay
# Parameters: key: below the threshold = too weak to quantify, mostly under pKd 3.1 to 4
# Conditions: plain residues with an end cap or a label only (N-terminal biotin on a linker: ado-ado)
# MAGI2_3, Q86UL8, sequence (Q86UL8 600-682): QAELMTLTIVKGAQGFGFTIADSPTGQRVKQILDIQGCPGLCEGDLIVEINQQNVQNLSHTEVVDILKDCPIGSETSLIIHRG
row,pKd,Binder
1,below the threshold,"QYPGSPDSWV [PKP4, Q99569]"

# Target: T4, PARD3B_1, Q8TEW8
# Test: holdup assay
# Parameters: key: below the threshold = too weak to quantify, mostly under pKd 3.1 to 4
# Conditions: plain residues with an end cap or a label only (N-terminal biotin on a linker: ado-ado)
row,pKd,Binder
1,3.56,"QYPGSPDSWV [PKP4, Q99569]"

# Target: DLG2_2, Q15700
# Test: holdup assay
# Parameters: key: below the threshold = too weak to quantify, mostly under pKd 3.1 to 4
# Conditions: plain residues with an end cap or a label only (N-terminal biotin on a linker: ado-ado)
# DLG2_2, Q15700, sequence (Q15700 189-283): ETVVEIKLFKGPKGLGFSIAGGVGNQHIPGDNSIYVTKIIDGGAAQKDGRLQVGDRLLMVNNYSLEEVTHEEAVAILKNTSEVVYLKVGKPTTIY
row,pKd,Binder
1,4.03,"QYPGSPDSWV [PKP4, Q99569]"

# Target: NHERF4_2, Q86UT5
# Test: holdup assay
# Parameters: key: below the threshold = too weak to quantify, mostly under pKd 3.1 to 4
# Conditions: plain residues with an end cap or a label only (N-terminal biotin on a linker: ado-ado)
# NHERF4_2, Q86UT5, sequence (Q86UT5 220-308): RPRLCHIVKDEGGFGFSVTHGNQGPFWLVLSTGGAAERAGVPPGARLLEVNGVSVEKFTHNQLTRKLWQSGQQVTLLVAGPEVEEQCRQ
row,pKd,Binder
1,below the threshold,"QYPGSPDSWV [PKP4, Q99569]"

# Target: T5, PCLO, Q9Y6V0
# Test: holdup assay
# Parameters: key: below the threshold = too weak to quantify, mostly under pKd 3.1 to 4
# Conditions: plain residues with an end cap or a label only (N-terminal biotin on a linker: ado-ado)
row,pKd,Binder
1,below the threshold,"QYPGSPDSWV [PKP4, Q99569]"

# Target: SCRIB_3, Q14160
# Test: holdup assay
# Parameters: key: below the threshold = too weak to quantify, mostly under pKd 3.1 to 4
# Conditions: plain residues with an end cap or a label only (N-terminal biotin on a linker: ado-ado)
# SCRIB_3, Q14160, sequence (Q14160 999-1103): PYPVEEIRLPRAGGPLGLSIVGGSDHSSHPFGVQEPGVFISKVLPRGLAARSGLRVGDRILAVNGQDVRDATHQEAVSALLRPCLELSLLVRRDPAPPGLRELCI
row,pKd,Binder
1,4.48,"QYPGSPDSWV [PKP4, Q99569]"

# Target: AHNAK1, Q09666
# Test: holdup assay
# Parameters: key: below the threshold = too weak to quantify, mostly under pKd 3.1 to 4
# Conditions: plain residues with an end cap or a label only (N-terminal biotin on a linker: ado-ado)
# AHNAK1, Q09666, sequence (Q09666 4-100): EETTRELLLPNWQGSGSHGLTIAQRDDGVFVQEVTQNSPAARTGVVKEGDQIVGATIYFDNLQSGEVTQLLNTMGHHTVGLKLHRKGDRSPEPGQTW
row,pKd,Binder
1,3.51,"QYPGSPDSWV [PKP4, Q99569]"

# Target: T6, LNX2_2, Q8N448
# Test: holdup assay
# Parameters: key: below the threshold = too weak to quantify, mostly under pKd 3.1 to 4
# Conditions: plain residues with an end cap or a label only (N-terminal biotin on a linker: ado-ado)
row,pKd,Binder
1,4.69,"QYPGSPDSWV [PKP4, Q99569]"

# Target: TJP1_2, Q07157
# Test: holdup assay
# Parameters: key: below the threshold = too weak to quantify, mostly under pKd 3.1 to 4
# Conditions: plain residues with an end cap or a label only (N-terminal biotin on a linker: ado-ado)
# TJP1_2, Q07157, sequence (Q07157 181-274): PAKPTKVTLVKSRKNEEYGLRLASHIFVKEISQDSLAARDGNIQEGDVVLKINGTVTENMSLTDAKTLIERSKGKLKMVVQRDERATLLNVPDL
row,pKd,Binder
1,3.76,"QYPGSPDSWV [PKP4, Q99569]"

# Target: T7, MPDZ_10, O75970
# Test: holdup assay
# Parameters: key: below the threshold = too weak to quantify, mostly under pKd 3.1 to 4
# Conditions: plain residues with an end cap or a label only (N-terminal biotin on a linker: ado-ado)
row,pKd,Binder
1,3.7,"QYPGSPDSWV [PKP4, Q99569]"

# Target: T8, DFNB31_3, Q9P202
# Test: holdup assay
# Parameters: key: below the threshold = too weak to quantify, mostly under pKd 3.1 to 4
# Conditions: plain residues with an end cap or a label only (N-terminal biotin on a linker: ado-ado)
row,pKd,Binder
1,3.75,"QYPGSPDSWV [PKP4, Q99569]"

# Target: T9, GRIP1_7, Q9Y3R0
# Test: holdup assay
# Parameters: key: below the threshold = too weak to quantify, mostly under pKd 3.1 to 4
# Conditions: plain residues with an end cap or a label only (N-terminal biotin on a linker: ado-ado)
row,pKd,Binder
1,3.7,"QYPGSPDSWV [PKP4, Q99569]"

# Target: DLG4_2, P78352
# Test: holdup assay
# Parameters: key: below the threshold = too weak to quantify, mostly under pKd 3.1 to 4
# Conditions: plain residues with an end cap or a label only (N-terminal biotin on a linker: ado-ado)
# DLG4_2, P78352, sequence (P78352 155-259): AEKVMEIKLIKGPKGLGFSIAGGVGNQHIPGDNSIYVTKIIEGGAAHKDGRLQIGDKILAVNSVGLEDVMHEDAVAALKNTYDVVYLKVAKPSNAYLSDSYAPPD
row,pKd,Binder
1,4.62,"QYPGSPDSWV [PKP4, Q99569]"

# Target: T10, DLG3_1, Q92796
# Test: holdup assay
# Parameters: key: below the threshold = too weak to quantify, mostly under pKd 3.1 to 4
# Conditions: plain residues with an end cap or a label only (N-terminal biotin on a linker: ado-ado)
row,pKd,Binder
1,3.97,"QYPGSPDSWV [PKP4, Q99569]"

# Target: MAGI2_6, Q86UL8
# Test: holdup assay
# Parameters: key: below the threshold = too weak to quantify, mostly under pKd 3.1 to 4
# Conditions: plain residues with an end cap or a label only (N-terminal biotin on a linker: ado-ado)
# MAGI2_6, Q86UL8, sequence (Q86UL8 1141-1229): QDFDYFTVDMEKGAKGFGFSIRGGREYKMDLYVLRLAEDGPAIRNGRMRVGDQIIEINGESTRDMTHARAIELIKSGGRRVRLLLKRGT
row,pKd,Binder
1,5.4,"QYPGSPDSWV [PKP4, Q99569]"

# Target: Inadl_1, Q8NI35
# Test: holdup assay
# Parameters: key: below the threshold = too weak to quantify, mostly under pKd 3.1 to 4
# Conditions: plain residues with an end cap or a label only (N-terminal biotin on a linker: ado-ado)
# Inadl_1, Q8NI35, sequence (Q8NI35 113-229): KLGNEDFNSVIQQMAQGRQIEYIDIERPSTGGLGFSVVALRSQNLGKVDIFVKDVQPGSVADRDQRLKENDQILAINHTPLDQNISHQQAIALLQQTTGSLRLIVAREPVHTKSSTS
row,pKd,Binder
1,below the threshold,"QYPGSPDSWV [PKP4, Q99569]"

# Target: T11, TIAM2, Q8IVF5
# Test: holdup assay
# Parameters: key: below the threshold = too weak to quantify, mostly under pKd 3.1 to 4
# Conditions: plain residues with an end cap or a label only (N-terminal biotin on a linker: ado-ado)
row,pKd,Binder
1,below the threshold,"QYPGSPDSWV [PKP4, Q99569]"

# Target: SCRIB_2, Q14160
# Test: holdup assay
# Parameters: key: below the threshold = too weak to quantify, mostly under pKd 3.1 to 4
# Conditions: plain residues with an end cap or a label only (N-terminal biotin on a linker: ado-ado)
# SCRIB_2, Q14160, sequence (Q14160 857-960): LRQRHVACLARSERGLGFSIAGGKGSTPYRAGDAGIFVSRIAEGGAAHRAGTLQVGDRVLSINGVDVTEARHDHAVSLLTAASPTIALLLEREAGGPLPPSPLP
row,pKd,Binder
1,4.82,"QYPGSPDSWV [PKP4, Q99569]"

# Target: DLG1_1, Q12959
# Test: holdup assay
# Parameters: key: below the threshold = too weak to quantify, mostly under pKd 3.1 to 4
# Conditions: plain residues with an end cap or a label only (N-terminal biotin on a linker: ado-ado)
row,pKd,Binder
1,3.96,"QYPGSPDSWV [PKP4, Q99569]"

# Target: HTRA1, Q92743
# Test: holdup assay
# Parameters: key: below the threshold = too weak to quantify, mostly under pKd 3.1 to 4
# Conditions: plain residues with an end cap or a label only (N-terminal biotin on a linker: ado-ado)
# HTRA1, Q92743, sequence (Q92743 360-477): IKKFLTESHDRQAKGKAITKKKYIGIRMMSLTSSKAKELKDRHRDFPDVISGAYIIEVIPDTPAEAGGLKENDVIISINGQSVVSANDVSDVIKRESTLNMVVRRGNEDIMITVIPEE
row,pKd,Binder
1,4.78,"QYPGSPDSWV [PKP4, Q99569]"
